Experimental data reported in PMC6258710, “Architecture and subunit arrangement of the complete Saccharomyces cerevisiae COMPASS complex” (Scientific Reports, 2018).

T1: Set1 (S. cerevisiae, UniProt P38827 1-1080)
T1 construct: Set1, histone H3K4 methyltransferase subunit of COMPASS, S. cerevisiae, full length; also called TAP-Set1; TAP-SET1; source: S. cerevisiae (strain yCOS2), overexpressed from the GAL1-10 promoter with the six Cps subunits; in lysate for the TAP purification; then purified as the COMPASS complex (IgG-Sepharose, TEV, calmodulin-Sepharose, glycerol gradient or GraFix); not shown: TAP, N-terminal, kept
T1 sequence (looked up): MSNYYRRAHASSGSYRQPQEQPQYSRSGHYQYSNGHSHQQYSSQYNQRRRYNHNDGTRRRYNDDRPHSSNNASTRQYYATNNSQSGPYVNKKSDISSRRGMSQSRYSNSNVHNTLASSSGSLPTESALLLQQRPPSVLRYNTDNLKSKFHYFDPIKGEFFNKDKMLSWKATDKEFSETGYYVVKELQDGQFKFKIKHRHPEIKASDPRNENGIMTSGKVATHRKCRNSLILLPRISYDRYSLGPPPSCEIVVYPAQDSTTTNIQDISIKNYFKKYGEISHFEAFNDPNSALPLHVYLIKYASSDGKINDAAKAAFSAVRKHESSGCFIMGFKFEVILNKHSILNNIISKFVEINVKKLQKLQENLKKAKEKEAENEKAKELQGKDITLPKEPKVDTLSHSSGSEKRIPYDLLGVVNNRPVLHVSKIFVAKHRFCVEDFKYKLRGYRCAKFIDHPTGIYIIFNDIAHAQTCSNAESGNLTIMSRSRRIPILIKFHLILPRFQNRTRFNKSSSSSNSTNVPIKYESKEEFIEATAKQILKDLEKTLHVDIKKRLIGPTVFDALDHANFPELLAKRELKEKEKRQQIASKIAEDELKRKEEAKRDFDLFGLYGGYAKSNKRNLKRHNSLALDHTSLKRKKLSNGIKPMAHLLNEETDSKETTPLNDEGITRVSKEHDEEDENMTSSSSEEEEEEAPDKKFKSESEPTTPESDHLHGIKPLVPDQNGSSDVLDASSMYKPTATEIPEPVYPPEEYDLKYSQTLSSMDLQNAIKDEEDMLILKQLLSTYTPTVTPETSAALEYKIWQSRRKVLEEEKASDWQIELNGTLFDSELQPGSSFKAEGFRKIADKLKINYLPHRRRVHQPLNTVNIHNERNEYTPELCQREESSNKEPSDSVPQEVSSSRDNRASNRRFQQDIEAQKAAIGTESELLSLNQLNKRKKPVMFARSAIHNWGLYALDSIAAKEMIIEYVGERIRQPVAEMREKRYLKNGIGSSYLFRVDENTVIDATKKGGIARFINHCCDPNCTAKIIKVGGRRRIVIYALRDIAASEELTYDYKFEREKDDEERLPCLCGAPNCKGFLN

B1: Cps50/Swd1 (natural protein, S. cerevisiae, UniProt P39706 1-426, looked up)
chain: MNILLQDPFAVLKEHPEKLTHTIENPLRTECLQFSPCGDYLALGCANGALVIYDMDTFRPICVPGNMLGAHVRPITSIAWSPDGRLLLTSSRDWSIKLWDLSKPSKPLKEIRFDSPIWGCQWLDAKRRLCVATIFEESDAYVIDFSNDPVASLLSKSDEKQLSSTPDHGYVLVCTVHTKHPNIIIVGTSKGWLDFYKFHSLYQTECIHSLKITSSNIKHLIVSQNGERLAINCSDRTIRQYEISIDDENSAVELTLEHKYQDVINKLQWNCILFSNNTAEYLVASTHGSSAHELYIWETTSGTLVRVLEGAEEELIDINWDFYSMSIVSNGFESGNVYVWSVVIPPKWSALAPDFEEVEENVDYLEKEDEFDEVDEAEQQQGLEQEEEIAIDLRTREQYDVRGNNLLVERFTIPTDYTRIIKMQSS
notes: Cps50/Swd1, WD40 repeat subunit of COMPASS, S. cerevisiae, full length; source: S. cerevisiae (strain yCOS2), overexpressed from the GAL1-10 promoter; in lysate for the TAP purification; then co-purified with TAP-Set1 as the COMPASS complex
B2: Cps60/Bre2 (natural protein, S. cerevisiae, UniProt P43132 1-505, looked up)
chain: MKLGIIPYQEGTDIVYKNALQGQQEGKRPNLPQMEATHQIKSSVQGTSYEFVRTEDIPLNRRHFVYRPCSANPFFTILGYGCTEYPFDHSGMSVMDRSEGLSISRDGNDLVSVPDQYGWRTARSDVCIKEGMTYWEVEVIRGGNKKFADGVNNKENADDSVDEVQSGIYEKMHKQVNDTPHLRFGVCRREASLEAPVGFDVYGYGIRDISLESIHEGKLNCVLENGSPLKEGDKIGFLLSLPSIHTQIKQAKEFTKRRIFALNSHMDTMNEPWREDAENGPSRKKLKQETTNKEFQRALLEDIEYNDVVRDQIAIRYKNQLFFEATDYVKTTKPEYYSSDKRERQDYYQLEDSYLAIFQNGKYLGKAFENLKPLLPPFSELQYNEKFYLGYWQHGEARDESNDKNTTSAKKKKQQQKKKKGLILRNKYVNNNKLGYYPTISCFNGGTARIISEEDKLEYLDQIRSAYCVDGNSKVNTLDTLYKEQIAEDIVWDIIDELEQIALQQ
notes: Cps60/Bre2, subunit of COMPASS, S. cerevisiae, full length; source: S. cerevisiae (strain yCOS2), overexpressed from the GAL1-10 promoter; in lysate for the TAP purification; then co-purified with TAP-Set1 as the COMPASS complex

Tests used:
Set1 [1] = target: T1, Set1; experiment: cross-linking; purified COMPASS from the glycerol gradient cross-linked with 1 mM disuccinimidyl suberate (DSS), on ice 2 h; trypsin digest, LC-MS/MS, pLink and xlinkx (XL-MS); conditions: both partners purified
Set1 [2] = target: T1, Set1; experiment: cryo-EM structure; complete COMPASS after GraFix (glutaraldehyde), map at 10.0 Å; subunits placed by DID, PA-NZ-1 Fab and eGFP labelling and by docking of homology models; conditions: both partners purified
Cps50/Swd1 = target: B1; experiment: as above; conditions: both partners purified
Set1 [3] = target: T1, Set1; experiment: tandem affinity purification (TAP), SDS-PAGE; yeast lysate; TAP-Set1 held on IgG-Sepharose, washed with 350 mM NaCl, TEV elution, calmodulin-Sepharose, EGTA elution, then glycerol gradient centrifugation; subunits seen by SDS-PAGE; conditions: partners not purified
Cps60/Bre2 = target: B2; experiment: cross-linking; purified COMPASS from the glycerol gradient cross-linked with 1 mM disuccinimidyl suberate (DSS), on ice 2 h; trypsin digest, LC-MS/MS, pLink and xlinkx (XL-MS); conditions: both partners purified

binding result (Set1 [1]) | binding result (Set1 [2]) | Binder | also measured
binds |  | Cps35/Swd2 (natural protein, S. cerevisiae, UniProt P36104 1-329, looked up, Cps35/Swd2, WD40 repeat subunit of COMPASS, S. cerevisiae, full length; source: S. cerevisiae (strain yCOS2), overexpressed from the GAL1-10 promoter; in lysate for the TAP purification; then co-purified with TAP-Set1 as the COMPASS complex) MTTVSINKPNLLKFKHVKSFQPQEKDCGPVTSLNFDDNGQFLLTSSSNDTMQLYSATNCKFLDTIASKKYGCHSAIFTHAQNECIYSSTMKNFDIKYLNLETNQYLRYFSGHGALVNDLKMNPVNDTFLSSSYDESVRLWDLKISKPQVIIPSLVPNCIAYDPSGLVFALGNPENFEIGLYNLKKIQEGPFLIIKINDATFSQWNKLEFSNNGKYLLVGSSIGKHLIFDAFTGQQLFELIGTRAFPMREFLDSGSACFTPDGEFVLGTDYDGRIAIWNHSDSISNKVLRPQGFIPCVSHETCPRSIAFNPKYSMFVTADETVDFYVYDE | 
binds |  | Cps40/Spp1 (natural protein, S. cerevisiae, UniProt Q03012 1-353, looked up, Cps40/Spp1, subunit of COMPASS, S. cerevisiae, full length; source: S. cerevisiae (strain yCOS2), overexpressed from the GAL1-10 promoter; in lysate for the TAP purification; then co-purified with TAP-Set1 as the COMPASS complex) MSLPQWCPPHSTLKRNPTTGEDVYCICKRPDYGELMVGCDGCDDWFHFTCLHIPEQFKDLVFSFYCPYCQAGITGKNKDAIINGEGSLPKTLWKRKCRISDCYKPCLQDSKYCSEEHGREFVNDIWSRLKTDEDRAVVKKMVEQTGHIDKFKKFGQLDFIDNNIVVKTDDEKEIFDQIVVRDMTLKTLEDDLQEVQEISLPLFKKKLELLEVYLGWLDNVYTEMRKLDDDAASHVECGKEDSKGTKRKKKKNSSRSRARKNICGYCSTYERIPCSVEEFVRDFGSNEEATKIHEVCTKWKCNRHLDWVSTNQEQYLQQIDSLESMQERLQHLIQARKKQLNIQYYEEILRRGL | 
 | binds | B1 | 
 | binds | Cps30/Swd3 (natural protein, S. cerevisiae, UniProt P38123 1-315, looked up, Cps30/Swd3, WD40 repeat subunit of COMPASS, S. cerevisiae, full length; source: S. cerevisiae (strain yCOS2), overexpressed from the GAL1-10 promoter; in lysate for the TAP purification; then co-purified with TAP-Set1 as the COMPASS complex) MFQFVTPVGTQNGLKATCAKISPDGQFLAITQGLNILIYDINRRTVSQTLVTSHARPFSELCWSPDGQCIATASDDFSVEIIHLSYGLLHTFIGHTAPVISLTFNRKGNLLFTSSMDESIKIWDTLNGSLMKTISAHSEAVVSVDVPMNDSSILSSGSYDGLIRIFDAETGHCLKTLTYDKDWKRENGVVPISQVKFSENARYLLVKSLDGVVKIWDCIGGCVVRTFQVQPLEKGVLHHSCGMDFLNPEDGSTPLVISGYENGDIYCWNSDTKSLLQLLDGSLYHHSSPVMSIHCFGNIMCSLALNGDCCLWRWV | binding result (Cps50/Swd1): binds
 |  | B2 | binding result (Set1 [3]): binds
binds |  | Cps25/Sdc1 (natural protein, S. cerevisiae, UniProt Q03323 1-175, looked up, Cps25/Sdc1, subunit of COMPASS, S. cerevisiae, full length; source: S. cerevisiae (strain yCOS2), overexpressed from the GAL1-10 promoter; in lysate for the TAP purification; then co-purified with TAP-Set1 as the COMPASS complex) MNESENSPQHNEVTVPMVEDTSSNADIPMEQIQREDNKNYDKHDNECFDMNGNHNNNSDNLQFDSVPSSATKDLKNIKSVTNQNVKIEESSSTNSVIEESSEPKISKLENVNLAATVGGSQTRKYLNTNVTPHLLAGMRLIAVQQPEDPLRVLGEYLIEQSNILKSGEKESNASK | binding result (Cps60/Bre2): binds
